Reference: article PMC7386315

How the values were obtained:
[1] = tested on: MoCdc5-DBD (Magnaporthe oryzae P131); assay: BLI
[2] = tested on: AtCdc5-DBD (Arabidopsis thaliana); assay: BLI

Q: U6 RNA was tested. Which Kd [1] did it give?
A: The Kd was 1.38 10^-8 M.

Q: MIR167a was tested. Which Kd [2] did it give?
A: Its Kd is 8.98 10^-8 M.

Q: What about the Kd [1] of the same substance?
A: The Kd was 5.17 10^-8 M.
